For 8 molecules, Kd results are on record in article PMC8239462, “Molecular chaperone RAP interacts with LRP1 in a dynamic bivalent mode and enhances folding of ligand-binding regions of other LDLR family receptors” (The Journal of Biological Chemistry, 2021).

B1: LRP1 cluster II (CR.3–10), recombinant, secreted from Sf9 cells (domain or fragment)
chain: PQCQPGEFACANSRCIQERWKCDGDNDCLDNSDEAPALCHQHTCPSDRFKCENNRCIPNRWLCDGDNDCGNSEDESNATCSARTCPPNQFSCASGRCIPISWTCDLDDDCGDRSDESASCAYPTCFPLTQFTCNNGRCININWRCDNDNDCGDNSDEAGCSHSCSSTQFKCNSGRCIPEHWTCDGDNDCGDYSDETHANCTNQATRPPGGCHTDEFQCRLDGLCIPLRWRCDGDTDCMDSSDEKSCEGVTHVCDPSVKFGCKDSARCISKAWVCDGDNDCEDNSDEENCESLACRPPSHPCANNTSVCLPPDKLCDGNDDCGDGSDEGELC
notes: also called LRP1 cluster II (8 CRs); cluster II (RAP−)
B2: recombinant human LRP-1 cluster II Fc chimera protein (R&D, 2368-L2) (Fc fusion, UniProt Q07954 852-1182, looked up)
chain: B1 chain
notes: human LRP1 cluster II of the bought Fc chimera; also called commercial LRP1 cluster II; source: bought: R&D (2368-L2)
B3: LRP1 CR.7–8 doublet (coexpression study) (domain or fragment)
chain: not shown
notes: human LRP1 complement-type repeats 7–8 (cluster II); also called LRP1 CR.7–8 (RAP+); LRP1 CR.7–8 (RAP−); source: Sf9, baculovirus (pFastBac-Dual), expressed without RAP or coexpressed with RAP; purified (HisTrap Excel, Superdex 75, monomer peak)
B4: LRP1 CR.6–7 doublet (coexpression study) (domain or fragment)
chain: not shown
notes: human LRP1 complement-type repeats 6–7 (cluster II); also called LRP1 CR; 6–7 (RAP+); LRP1 CR 6–7 (RAP−); source: Sf9, baculovirus (pFastBac-Dual), expressed without RAP or coexpressed with RAP; purified (HisTrap Excel, Superdex 75, monomer peak)
B5: LRP1 CR.6–8 triplet coexpressed with RAP (RAP+) (domain or fragment)
chain: not shown
notes: human LRP1 complement-type repeats 6–8 (cluster II); also called LRP1 CR; 6–8 (RAP+); source: Sf9, baculovirus (pFastBac-Dual), coexpressed with RAP; purified (HisTrap Excel, Superdex 75, monomer peak)
B6: RAP (commercial; R&D, 4296-LR) (natural protein, human)
chain: YSREKNQPKPSPKRESGEEFRMEKLNQLWEKAQRLHLPPVRLAELHADLKIQERDELAWKKLKLDGLDEDGEKEARLIRNLNVILAKYGLDGKKDARQVTSNSLSGTQEDGLDDPRLEKLWHKAKTSGKFSGEELDKLWREFLHHKEKVHEYNVLLETLSRTEEIHENVISPSDLSDIKGSVLHSRHTELKEKLRSINQGLDRLRRVSHQGYSTEAEFEEPRVIDLWDLAQSANLTDKELEAFREELKHFEAKIEKHNHYQKQLEIAHEKLRHAESVGDGERVSRSREKHALLEGRTKELGYTVKKHLQDLSGRISRARHNEL
notes: RAP (LDL-receptor related protein-associated protein), commercial preparation; also called receptor-associated protein; LDL-receptor related protein-associated protein; source: bought: R&D (4296-LR)
B7: LRP1 CR.6–8 triplet expressed without RAP (RAP−) (domain or fragment)
chain: not shown
notes: human LRP1 complement-type repeats 6–8 (cluster II); also called LRP1 CR.6–8 (RAP−); source: Sf9, baculovirus (pFastBac-Dual), expressed without RAP; purified (HisTrap Excel, Superdex 75, monomer peak)
B8: LRP1 CR.7 singlet (domain or fragment)
chain: not shown
notes: human LRP1 complement-type repeat 7 (cluster II); also called LRP1 CR.7 (RAP+); LRP1 CR.7 (RAP−); source: Sf9, baculovirus (pFastBac-Dual), expressed without RAP or coexpressed with RAP; purified (HisTrap Excel, Superdex 75, monomer peak)

Settings in all cases: both partners purified
Experiment [1] deals with T1, recombinant Factor VIII (Advate) (UniProt P00451 20-2351).
T1 construct: blood coagulation factor VIII, recombinant drug product Advate; also called FVIII; blood coagulation factor VIII; source: bought: Advate
Kind of experiment: SPR; Biacore T200; receptor fragment COEXPRESSED with RAP (RAP+; for the LRP1 clusters RAP without HTEL; RAP washed off during purification), monomer, amine-coupled to CM5 at ~250 RU; RAP (0.08–20 nM), FVIII (0.8–200 nM) or ApoE3 (0.78–200 nM) in flow, 30 ul/min, contact 180 s; HBS-P Ca2+ pH 7.4; KD from the steady-state affinity model. Background: SPR reads the build-up and loss of mass on a sensor chip optically.

The target in experiment [2] is T1, recombinant Factor VIII (Advate). The experiment is described as follows: SPR; Biacore T200; LRP1 cluster II coexpressed with RAP having the HTEL signal (RAP-HTEL+), monomer, amine-coupled to CM5 at ~250 RU; RAP (0.08–20 nM) or FVIII (0.8–200 nM) in flow; HBS-P Ca2+ pH 7.4; KD from the steady-state affinity model.
Experiment [3] has the same target. The experiment is described as follows: SPR; Biacore T200; receptor fragment expressed WITHOUT RAP (RAP−), monomer, amine-coupled to CM5 at ~250 RU; RAP (0.08–20 nM), FVIII (0.8–200 nM) or ApoE3 (0.78–200 nM) in flow, 30 ul/min, contact 180 s; HBS-P Ca2+ pH 7.4 (10 mM HEPES, 150 mM NaCl, 5 mM CaCl2, 0.005% Tween-20); KD from the steady-state affinity model.
The target is the same in experiment [4]. The experiment is described as follows: SPR; Biacore T200; commercial LRP1 cluster Fc chimeras (R&D) amine-coupled to CM5 at ~250 RU; RAP (0.08–20 nM) or FVIII (0.8–200 nM) in flow; HBS-P Ca2+ pH 7.4; KD from the steady-state affinity model.
Experiment [5] deals with B6. Kind of experiment: SPR; Biacore T200; receptor fragment COEXPRESSED with RAP (RAP+; for the LRP1 clusters RAP without HTEL; RAP washed off during purification), monomer, amine-coupled to CM5 at ~250 RU; RAP (0.08–20 nM), FVIII (0.8–200 nM) or ApoE3 (0.78–200 nM) in flow, 30 ul/min, contact 180 s; HBS-P Ca2+ pH 7.4; KD from the steady-state affinity model.
Experiment [6] concerns the target B6. The experiment is described as follows: SPR; Biacore T200; receptor fragment expressed WITHOUT RAP (RAP−), monomer, amine-coupled to CM5 at ~250 RU; RAP (0.08–20 nM), FVIII (0.8–200 nM) or ApoE3 (0.78–200 nM) in flow, 30 ul/min, contact 180 s; HBS-P Ca2+ pH 7.4 (10 mM HEPES, 150 mM NaCl, 5 mM CaCl2, 0.005% Tween-20); KD from the steady-state affinity model.
Experiment [7] deals with T2, LRP1 cluster III, recombinant, secreted from Sf9 cells (human, UniProt Q07954 2522-2940).
T2 construct: also called cluster III (RAP+); cluster III (RAP−)
The experiment is described as follows: SPR; Biacore T200; receptor fragment COEXPRESSED with RAP (RAP+; for the LRP1 clusters RAP without HTEL; RAP washed off during purification), monomer, amine-coupled to CM5 at ~250 RU; RAP (0.08–20 nM), FVIII (0.8–200 nM) or ApoE3 (0.78–200 nM) in flow, 30 ul/min, contact 180 s; HBS-P Ca2+ pH 7.4; KD from the steady-state affinity model.

In general, Kd refers to a measure of binding affinity in units of concentration.

“And” between values parts separate entries of the source, which are not always exact repeats. Identical values can stand only once.

T1 sequence (P00451 20-2351): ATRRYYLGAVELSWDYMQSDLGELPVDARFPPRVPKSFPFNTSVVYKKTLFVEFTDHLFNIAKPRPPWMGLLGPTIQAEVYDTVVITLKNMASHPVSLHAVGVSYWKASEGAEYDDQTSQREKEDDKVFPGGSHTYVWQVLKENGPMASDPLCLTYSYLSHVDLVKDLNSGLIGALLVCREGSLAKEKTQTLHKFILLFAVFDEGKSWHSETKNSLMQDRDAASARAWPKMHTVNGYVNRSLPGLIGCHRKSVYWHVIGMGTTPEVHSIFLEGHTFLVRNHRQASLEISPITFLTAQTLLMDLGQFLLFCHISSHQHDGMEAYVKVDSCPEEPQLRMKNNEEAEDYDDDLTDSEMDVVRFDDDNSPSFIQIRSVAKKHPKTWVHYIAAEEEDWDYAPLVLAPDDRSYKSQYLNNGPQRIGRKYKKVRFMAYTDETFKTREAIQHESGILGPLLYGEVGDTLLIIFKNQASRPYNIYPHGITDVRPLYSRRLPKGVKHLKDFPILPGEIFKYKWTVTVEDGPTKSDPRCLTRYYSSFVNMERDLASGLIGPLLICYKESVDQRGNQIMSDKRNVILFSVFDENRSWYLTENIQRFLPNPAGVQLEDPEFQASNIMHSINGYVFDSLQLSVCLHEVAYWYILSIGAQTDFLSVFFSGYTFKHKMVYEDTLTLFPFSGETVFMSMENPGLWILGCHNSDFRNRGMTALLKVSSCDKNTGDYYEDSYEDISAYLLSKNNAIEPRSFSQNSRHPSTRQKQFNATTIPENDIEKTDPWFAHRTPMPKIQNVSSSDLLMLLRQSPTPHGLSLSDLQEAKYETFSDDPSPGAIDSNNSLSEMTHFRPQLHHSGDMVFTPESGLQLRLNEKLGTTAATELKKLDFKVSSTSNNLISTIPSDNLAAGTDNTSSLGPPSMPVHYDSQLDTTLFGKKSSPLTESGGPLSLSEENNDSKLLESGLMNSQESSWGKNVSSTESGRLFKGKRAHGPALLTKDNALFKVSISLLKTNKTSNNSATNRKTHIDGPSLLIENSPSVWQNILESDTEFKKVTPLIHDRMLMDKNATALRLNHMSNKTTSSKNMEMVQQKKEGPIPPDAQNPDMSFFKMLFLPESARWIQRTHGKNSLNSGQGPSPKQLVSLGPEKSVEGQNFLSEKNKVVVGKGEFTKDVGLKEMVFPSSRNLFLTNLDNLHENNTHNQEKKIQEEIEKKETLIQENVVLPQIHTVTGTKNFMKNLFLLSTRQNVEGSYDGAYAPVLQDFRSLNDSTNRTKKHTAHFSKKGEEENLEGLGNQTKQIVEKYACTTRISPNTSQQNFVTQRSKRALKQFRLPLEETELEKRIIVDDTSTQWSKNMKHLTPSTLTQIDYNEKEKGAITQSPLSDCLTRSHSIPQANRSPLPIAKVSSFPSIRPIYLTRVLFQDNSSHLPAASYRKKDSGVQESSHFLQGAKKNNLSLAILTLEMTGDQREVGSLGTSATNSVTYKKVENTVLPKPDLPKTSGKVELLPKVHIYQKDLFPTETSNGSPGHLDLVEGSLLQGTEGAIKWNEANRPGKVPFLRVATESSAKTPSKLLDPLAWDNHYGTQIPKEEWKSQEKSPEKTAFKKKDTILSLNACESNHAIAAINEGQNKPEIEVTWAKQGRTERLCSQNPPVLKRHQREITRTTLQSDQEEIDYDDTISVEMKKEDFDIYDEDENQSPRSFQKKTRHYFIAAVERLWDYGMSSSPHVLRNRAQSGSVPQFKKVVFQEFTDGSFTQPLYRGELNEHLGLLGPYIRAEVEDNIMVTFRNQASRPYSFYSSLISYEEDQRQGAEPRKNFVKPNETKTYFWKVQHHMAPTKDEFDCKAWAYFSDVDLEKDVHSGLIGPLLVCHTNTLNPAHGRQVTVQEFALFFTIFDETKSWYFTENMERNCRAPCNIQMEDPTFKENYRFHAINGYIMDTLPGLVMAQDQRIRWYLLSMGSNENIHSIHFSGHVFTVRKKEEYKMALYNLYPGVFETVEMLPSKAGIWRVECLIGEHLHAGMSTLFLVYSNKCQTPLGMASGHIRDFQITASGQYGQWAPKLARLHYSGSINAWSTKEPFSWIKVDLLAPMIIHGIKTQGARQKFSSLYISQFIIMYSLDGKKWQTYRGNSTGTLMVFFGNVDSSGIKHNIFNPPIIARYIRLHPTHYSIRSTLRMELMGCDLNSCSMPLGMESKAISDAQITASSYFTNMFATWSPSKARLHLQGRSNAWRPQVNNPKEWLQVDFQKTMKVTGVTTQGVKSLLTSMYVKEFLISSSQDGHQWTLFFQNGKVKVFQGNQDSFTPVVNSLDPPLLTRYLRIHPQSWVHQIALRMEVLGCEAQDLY
T2 sequence (Q07954 2522-2940): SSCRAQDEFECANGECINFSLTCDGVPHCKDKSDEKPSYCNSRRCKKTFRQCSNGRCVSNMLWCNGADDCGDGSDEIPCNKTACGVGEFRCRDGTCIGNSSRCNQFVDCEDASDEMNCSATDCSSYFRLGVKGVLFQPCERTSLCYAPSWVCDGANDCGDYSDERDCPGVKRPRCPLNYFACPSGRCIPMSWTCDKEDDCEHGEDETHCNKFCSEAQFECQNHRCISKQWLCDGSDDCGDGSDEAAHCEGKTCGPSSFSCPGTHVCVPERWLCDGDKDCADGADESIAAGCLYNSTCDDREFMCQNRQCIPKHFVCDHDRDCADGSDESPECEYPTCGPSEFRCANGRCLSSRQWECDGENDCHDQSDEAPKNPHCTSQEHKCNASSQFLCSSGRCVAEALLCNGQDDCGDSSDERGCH

Consider B1, for which the Kd in experiment [1] was 25 nM and 42 nM; in experiment [2], 37 nM; in experiment [3] it was 244 nM and 192 nM. As for B2, the Kd in experiment [4] came out at 450 nM. On to B3, for which the Kd in experiment [5] worked out at 3.1 nM.

B4: the Kd worked out at 3.8 nM in experiment [5] and 3.9 nM in experiment [6]. For B5, in experiment [5], the Kd came out at 2.8 nM. As to B6, the Kd in experiment [7] turned out to be 2 nM.

Consider B7, for which the Kd in experiment [6] came to 2.9 nM. Regarding B8, the Kd was 34.9 nM in experiment [5] and 43.7 nM in experiment [6].
